Source: doi:10.1101/2024.04.26.587986 (bioRxiv, 2024)

Target: the molecule itself
Assay: SEC

B1: β-galactosidase (GLB1), endogenous in mouse brain (enzyme, mouse (endogenous in mouse brain), UniProt P23780 30-647, looked up)
chain: QRTFKLDYSRDRFLKDGQPFRYISGSIHYFRIPRFYWEDRLLKMKMAGLNAIQMYVPWNFHEPQPGQYEFSGDRDVEHFIQLAHELGLLVILRPGPYICAEWDMGGLPAWLLEKQSIVLRSSDPDYLVAVDKWLAVLLPKMKPLLYQNGGPIITVQVENEYGSYFACDYDYLRFLVHRFRYHLGNDVILFTTDGASEKMLKCGTLQDLYATVDFGTGNNITQAFLVQRKFEPKGPLINSEFYTGWLDHWGKPHSTVKTKTLATSLYNLLARGANVNLYMFIGGTNFAYWNGANTPYEPQPTSYDYDAPLSEAGDLTKKYFALREVIQMFKEVPEGPIPPSTPKFAYGKVALRKFKTVAEALGILCPNGPVKSLYPLTFTQVKQYFGYVLYRTTLPQDCSNPKPIFSSPFNGVRDRAYVSVDGVPQGILDRNLMTALNIRGKAGATLDILVENMGRVNYGRFINDFKGLISNMTINSTVLTNWTVFPLNTEAMVRNHLWGREASDEGHLDGRSTSNSSDLILPTFYVGNFSIPSGIPDLPQDTFIQFPGWSKGQVWINGFNLGRYWPTMGPQKTLFVPRNILTTSAPNNITVLELEFAPCSEGTPELCTVEFVDTPVIS
B1 was tested, and the “stoichiometry N” value was 4.
